{
  "source": "patent US20210079101A1",
  "about": "(LABORATOIRE FRANAIS DU FRACTIONNEMENT ET DES BIOTECHNOLOGIES, published 2021)",
  "target": "T1, Galectin-3 protein (human, UniProt P17931 2-250)",
  "T1 construct": "Endogenous antigen in human atheroma tissue sections; also called Gal3",
  "T1 sequence (P17931 2-250 limits assumed)": "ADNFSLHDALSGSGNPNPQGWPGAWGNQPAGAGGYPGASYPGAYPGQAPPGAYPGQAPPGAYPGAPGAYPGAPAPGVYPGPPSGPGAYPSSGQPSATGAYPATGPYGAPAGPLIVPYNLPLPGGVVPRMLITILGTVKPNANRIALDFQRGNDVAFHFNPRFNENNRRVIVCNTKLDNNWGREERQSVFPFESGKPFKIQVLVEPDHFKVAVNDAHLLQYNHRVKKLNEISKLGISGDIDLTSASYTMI",
  "assay": "double immunofluorescence staining of human endarteriectomy sections (colocalisation with anti-galectin-3 antibody)",
  "excerpt": "FIG. 3: Immunofluorescent staining of human endarteriectomy sections and aortas of ApoE^{-/-} and WT mouse with P3 scFv-Fc or commercial control antibodies. (A) Double immunofluorescence staining of human endarteriectomy sections. […] Size bars: 50 μm. (B) Fluorescent macroscopy of P3 scFv-Fc after ex vivo injection in ApoE^{-/-} mouse and WT mouse. A human IgG was used as a negative control antibody.\nHuman tissue specimens were provided by Pr DUCASSE Eric, vascular surgeon at CHU Pellegrin. For immunofluorescence stainings, human sections were deparaffinised and rehydrated. After a retrieval step (pH9), slides were blocked with (1) PBS/1% BSA/0.2% Triton X10 followed by (2) 5% goat serum and (3) addition of goat anti human IgG H+L and Fcγ specific diluted at 100 μg/mL. Primary scFv-Fc produced in baculovirus or commercially available antibodies were added overnight at 4° C. Slides were incubated with scFv-Fc diluted at 50 μg/mL in PBS/1% BSA and, as controls, secondary antibody alone or commercial antibodies according to the manufacturer's instructions. […] After 1h incubation, slides were washed in PBS 3 times and mounted with Vectashield (VWR, France).",
  "data": [
    {"binder": "P3 scFv-Fc (Fc fusion, these probably describe the HEK construct without the 2 extra cysteines; also called scFv-Fc P3; Human P3 scFv-Fc; not shown: human IgG1 Fc domain with 2 extra cysteine residues at the C-terminal end (baculovirus/Sf9 construct)) QVQLQQSGPGLVKPSQTLSLTCAISGDSVSSNNFGWNWIRQSPSRGLEWLGRTYYRSKWYNDYAVSVRSRITINPDTSKNQFSLQLNSVTPEDTAVYYCARQGSTYFDYWGQGTLVTVSSEFGGGGSGGGGSGGGGSRDIVMTQSPSSLSASVGDRVTITCRASQTISSSLAWFQQRPGEAPNLLIYSASSLQSGVPSRFSGSGSGTDFTLTISSLQPEDFATYSCQQTYSAPPTFGGGTKLEIK", "values": [
      {"measurement": "binding result", "value": "binds"}
    ]}
  ]
}
